Measurements from the supplement of paper PMC10065799, “High-throughput profiling of sequence recognition by tyrosine kinases and SH2 domains using bacterial peptide display” (eLife, 2023).

Legend:
AncSZ = experiment: phosphorylation enrichment, bacterial display (enrichment ratio); higher = better substrate or ligand; peptides without Tyr show the background
EPHB1 = EPHB1 (UniProt P54762); experiment: as above
EPHB2 = EPHB2 (UniProt P29323); experiment: as above
FGFR1 = FGFR1 (UniProt P11362); experiment: as above
FGFR3 = FGFR3 (UniProt P22607); experiment: as above
Fer (mouse) = experiment: as above
Fes = Fes (UniProt P07332); experiment: as above
Fyn = Fyn (UniProt P06241); experiment: as above
Hck = Hck (UniProt P08631); experiment: as above
Jak2 = Jak2 (UniProt O60674); experiment: as above
MERTK = MERTK (UniProt Q12866); experiment: as above
c-Abl (mouse) = experiment: as above
c-Src = experiment: as above
Grb2 SH2 = Grb2 SH2 (UniProt P62993); experiment: SH2 binding enrichment of the phosphorylated peptide, bacterial display (enrichment ratio); higher = better substrate or ligand; peptides without Tyr show the background
SHP2-C SH2 = experiment: as above
c-Src SH2 = experiment: as above
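Wherever SH2 binding enrichment of the phosphorylated peptide, bacterial display is given: peptide library displayed on the E. coli surface as eCPX fusions, selected cells deep-sequenced, score is each peptide's frequency after selection divided by its frequency in the input.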
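Wherever phosphorylation enrichment, bacterial display is given: 11-residue human phosphosite peptides and single-mutation variants displayed on the E. coli surface, counted by deep sequencing, each peptide's frequency after selection divided by its frequency in the unselected input library; frequency after pTyr selection over input frequency; kinase dosed for 20-30% of maximal phosphorylation in three min.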

Sequence of FGFR1 (P11362 whole entry, looked up): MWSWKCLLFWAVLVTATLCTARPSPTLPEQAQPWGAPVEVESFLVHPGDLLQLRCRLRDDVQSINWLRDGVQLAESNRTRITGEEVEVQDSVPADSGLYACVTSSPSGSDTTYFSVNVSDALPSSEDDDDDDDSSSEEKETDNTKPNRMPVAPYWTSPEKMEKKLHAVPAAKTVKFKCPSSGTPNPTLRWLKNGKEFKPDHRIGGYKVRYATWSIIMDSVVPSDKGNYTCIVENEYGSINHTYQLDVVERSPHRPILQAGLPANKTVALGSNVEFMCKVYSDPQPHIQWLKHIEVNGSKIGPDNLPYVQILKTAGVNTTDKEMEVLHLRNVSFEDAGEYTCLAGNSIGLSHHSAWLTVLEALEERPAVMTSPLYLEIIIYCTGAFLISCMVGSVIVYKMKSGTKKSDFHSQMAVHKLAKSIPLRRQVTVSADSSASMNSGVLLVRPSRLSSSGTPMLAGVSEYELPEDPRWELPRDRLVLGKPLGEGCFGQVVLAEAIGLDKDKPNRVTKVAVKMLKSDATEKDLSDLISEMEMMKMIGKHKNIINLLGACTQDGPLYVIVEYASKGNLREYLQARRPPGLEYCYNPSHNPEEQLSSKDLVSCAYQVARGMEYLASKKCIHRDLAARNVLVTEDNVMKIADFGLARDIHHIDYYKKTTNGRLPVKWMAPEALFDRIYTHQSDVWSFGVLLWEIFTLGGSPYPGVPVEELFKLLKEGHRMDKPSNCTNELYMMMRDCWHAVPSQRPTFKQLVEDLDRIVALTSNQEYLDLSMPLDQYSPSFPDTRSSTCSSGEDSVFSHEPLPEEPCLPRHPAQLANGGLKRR
Sequence of MERTK (Q12866 whole entry, looked up): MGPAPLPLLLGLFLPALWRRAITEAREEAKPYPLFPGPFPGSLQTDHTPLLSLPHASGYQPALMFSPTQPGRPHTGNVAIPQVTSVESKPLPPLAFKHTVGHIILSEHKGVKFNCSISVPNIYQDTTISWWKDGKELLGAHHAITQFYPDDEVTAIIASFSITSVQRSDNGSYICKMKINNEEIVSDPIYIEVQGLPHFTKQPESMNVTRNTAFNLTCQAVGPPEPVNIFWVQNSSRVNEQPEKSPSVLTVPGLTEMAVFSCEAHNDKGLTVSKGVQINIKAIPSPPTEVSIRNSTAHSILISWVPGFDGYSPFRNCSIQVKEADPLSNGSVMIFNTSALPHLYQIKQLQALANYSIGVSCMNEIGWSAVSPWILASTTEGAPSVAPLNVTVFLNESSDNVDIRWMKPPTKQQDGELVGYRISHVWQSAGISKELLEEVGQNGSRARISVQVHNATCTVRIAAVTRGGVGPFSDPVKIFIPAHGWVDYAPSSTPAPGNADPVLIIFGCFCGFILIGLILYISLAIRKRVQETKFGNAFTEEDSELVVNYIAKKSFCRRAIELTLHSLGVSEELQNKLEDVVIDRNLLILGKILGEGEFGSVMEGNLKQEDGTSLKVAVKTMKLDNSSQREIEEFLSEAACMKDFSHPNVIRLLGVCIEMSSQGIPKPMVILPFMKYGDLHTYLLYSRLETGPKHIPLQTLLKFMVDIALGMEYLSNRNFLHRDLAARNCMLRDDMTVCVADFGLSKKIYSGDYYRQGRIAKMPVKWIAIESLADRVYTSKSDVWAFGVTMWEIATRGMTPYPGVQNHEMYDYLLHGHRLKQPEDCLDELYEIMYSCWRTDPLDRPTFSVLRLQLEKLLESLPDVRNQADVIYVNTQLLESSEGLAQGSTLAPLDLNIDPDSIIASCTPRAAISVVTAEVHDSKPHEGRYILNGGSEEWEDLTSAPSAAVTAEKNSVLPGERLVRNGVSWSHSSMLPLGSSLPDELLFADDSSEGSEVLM
Sequence of FGFR3 (P22607 whole entry, looked up): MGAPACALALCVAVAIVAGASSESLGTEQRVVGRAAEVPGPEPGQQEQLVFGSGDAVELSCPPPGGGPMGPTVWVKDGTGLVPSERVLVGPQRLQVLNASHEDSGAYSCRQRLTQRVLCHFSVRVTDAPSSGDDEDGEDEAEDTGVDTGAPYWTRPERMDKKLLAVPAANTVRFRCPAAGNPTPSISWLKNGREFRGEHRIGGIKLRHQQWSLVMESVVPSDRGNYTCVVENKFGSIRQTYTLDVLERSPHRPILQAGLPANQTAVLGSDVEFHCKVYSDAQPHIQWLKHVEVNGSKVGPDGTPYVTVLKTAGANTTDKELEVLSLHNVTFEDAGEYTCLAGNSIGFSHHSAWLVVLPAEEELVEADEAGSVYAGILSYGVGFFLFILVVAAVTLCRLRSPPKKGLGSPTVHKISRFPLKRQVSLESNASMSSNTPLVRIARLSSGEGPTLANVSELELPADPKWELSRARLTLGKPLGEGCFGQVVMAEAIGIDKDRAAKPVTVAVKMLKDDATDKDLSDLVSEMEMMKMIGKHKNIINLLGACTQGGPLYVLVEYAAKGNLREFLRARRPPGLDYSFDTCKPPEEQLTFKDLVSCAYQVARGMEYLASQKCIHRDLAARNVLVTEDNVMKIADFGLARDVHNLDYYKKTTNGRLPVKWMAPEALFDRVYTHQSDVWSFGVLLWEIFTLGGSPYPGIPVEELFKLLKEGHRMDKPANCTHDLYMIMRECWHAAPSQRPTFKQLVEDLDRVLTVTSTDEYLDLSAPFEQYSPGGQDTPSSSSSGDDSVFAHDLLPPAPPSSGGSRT
Sequence of EPHB2 (P29323 whole entry, looked up): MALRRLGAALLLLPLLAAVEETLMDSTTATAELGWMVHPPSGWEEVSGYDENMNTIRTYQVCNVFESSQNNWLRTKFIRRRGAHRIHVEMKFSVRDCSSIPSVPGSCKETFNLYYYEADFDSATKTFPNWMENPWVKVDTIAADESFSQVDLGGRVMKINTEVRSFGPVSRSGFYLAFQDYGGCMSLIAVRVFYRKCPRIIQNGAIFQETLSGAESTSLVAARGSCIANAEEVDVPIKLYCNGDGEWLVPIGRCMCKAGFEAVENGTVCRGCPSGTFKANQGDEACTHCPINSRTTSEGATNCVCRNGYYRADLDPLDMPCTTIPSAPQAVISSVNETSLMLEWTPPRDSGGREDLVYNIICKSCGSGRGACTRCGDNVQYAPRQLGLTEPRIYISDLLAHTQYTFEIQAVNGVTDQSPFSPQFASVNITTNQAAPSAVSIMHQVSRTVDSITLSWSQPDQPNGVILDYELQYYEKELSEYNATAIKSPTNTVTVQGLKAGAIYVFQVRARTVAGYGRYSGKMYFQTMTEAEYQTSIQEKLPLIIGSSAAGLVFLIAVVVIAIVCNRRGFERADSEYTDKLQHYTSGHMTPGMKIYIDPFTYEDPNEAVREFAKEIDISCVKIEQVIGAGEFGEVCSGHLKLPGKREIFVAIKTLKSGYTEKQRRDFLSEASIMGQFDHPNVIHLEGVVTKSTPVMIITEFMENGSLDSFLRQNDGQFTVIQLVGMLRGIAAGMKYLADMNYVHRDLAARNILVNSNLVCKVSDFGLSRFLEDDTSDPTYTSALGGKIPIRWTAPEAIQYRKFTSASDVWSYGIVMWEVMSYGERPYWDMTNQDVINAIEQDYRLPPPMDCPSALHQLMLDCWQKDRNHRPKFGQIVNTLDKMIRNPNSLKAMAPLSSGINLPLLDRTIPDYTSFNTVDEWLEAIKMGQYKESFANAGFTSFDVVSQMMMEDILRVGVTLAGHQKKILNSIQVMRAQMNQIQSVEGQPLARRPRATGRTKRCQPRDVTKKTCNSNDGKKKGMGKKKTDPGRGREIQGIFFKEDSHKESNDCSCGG
Sequence of Fes (P07332 whole entry, looked up): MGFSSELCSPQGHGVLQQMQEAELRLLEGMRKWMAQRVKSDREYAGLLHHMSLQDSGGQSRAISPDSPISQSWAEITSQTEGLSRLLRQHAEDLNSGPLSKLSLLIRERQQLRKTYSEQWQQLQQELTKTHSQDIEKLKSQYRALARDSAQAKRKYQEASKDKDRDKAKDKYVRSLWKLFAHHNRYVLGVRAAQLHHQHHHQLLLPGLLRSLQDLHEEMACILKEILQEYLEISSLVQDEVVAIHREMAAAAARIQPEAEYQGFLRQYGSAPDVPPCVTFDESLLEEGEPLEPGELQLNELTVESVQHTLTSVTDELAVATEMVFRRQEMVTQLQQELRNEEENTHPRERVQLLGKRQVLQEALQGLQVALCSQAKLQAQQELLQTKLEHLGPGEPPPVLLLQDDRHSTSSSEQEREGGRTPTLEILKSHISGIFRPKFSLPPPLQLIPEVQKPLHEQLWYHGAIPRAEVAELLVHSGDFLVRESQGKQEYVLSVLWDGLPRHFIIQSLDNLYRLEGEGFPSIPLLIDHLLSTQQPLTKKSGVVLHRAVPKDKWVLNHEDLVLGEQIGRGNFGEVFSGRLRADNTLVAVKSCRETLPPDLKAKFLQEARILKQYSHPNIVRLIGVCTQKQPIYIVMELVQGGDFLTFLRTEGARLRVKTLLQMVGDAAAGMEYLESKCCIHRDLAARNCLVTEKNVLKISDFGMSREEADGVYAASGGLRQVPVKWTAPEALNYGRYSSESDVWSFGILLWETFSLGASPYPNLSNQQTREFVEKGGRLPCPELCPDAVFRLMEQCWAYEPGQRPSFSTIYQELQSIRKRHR
Sequence of Fyn (P06241 whole entry, looked up): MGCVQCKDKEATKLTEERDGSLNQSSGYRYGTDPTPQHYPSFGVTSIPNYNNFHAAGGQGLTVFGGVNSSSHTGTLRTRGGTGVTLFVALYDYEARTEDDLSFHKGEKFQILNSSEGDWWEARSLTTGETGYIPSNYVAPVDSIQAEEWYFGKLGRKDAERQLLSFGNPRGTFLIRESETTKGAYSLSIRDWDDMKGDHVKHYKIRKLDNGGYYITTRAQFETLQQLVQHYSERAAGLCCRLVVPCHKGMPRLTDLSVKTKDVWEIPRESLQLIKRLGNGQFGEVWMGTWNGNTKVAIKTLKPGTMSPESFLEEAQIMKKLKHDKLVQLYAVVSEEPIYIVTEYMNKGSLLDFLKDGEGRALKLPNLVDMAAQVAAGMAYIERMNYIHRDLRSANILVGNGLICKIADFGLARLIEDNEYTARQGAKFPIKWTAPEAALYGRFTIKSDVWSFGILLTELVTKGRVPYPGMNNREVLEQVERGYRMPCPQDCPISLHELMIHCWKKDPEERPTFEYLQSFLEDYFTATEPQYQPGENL

Row | Sequence | phosphorylation enrichment (AncSZ) | phosphorylation enrichment (EPHB1) | phosphorylation enrichment (EPHB2) | phosphorylation enrichment (FGFR1) | phosphorylation enrichment (FGFR3) | phosphorylation enrichment (Fer (mouse)) | phosphorylation enrichment (Fes) | phosphorylation enrichment (Fyn) | phosphorylation enrichment (Hck) | phosphorylation enrichment (Jak2) | phosphorylation enrichment (MERTK) | phosphorylation enrichment (c-Abl (mouse)) | phosphorylation enrichment (c-Src) | SH2 binding enrichment (Grb2 SH2) | SH2 binding enrichment (SHP2-C SH2) | SH2 binding enrichment (c-Src SH2)
1 | PEQAAYQKVVA [HBB_Y131_V127E] | 0.591 | 0.613 | 0.811 | 0.519 | 0.524 | 0.681 | 1.07 | 0.462 | 0.561 | 1.08 | 0.483 | 1 | 0.472 | 0.782 | 0.497 | 0.669
2 | PFGQWYESHFA [RPS8_Y113_R110G_YF] | 1.3 | 5.8 | 4.94 | 1.01 | 1.01 | 17.7 | 1.43 | 1.32 | 1.53 | 0.907 | 4.87 | 0.764 | 4.21 | 1.15 | 1.12 | 0.919
3 | PFTRNYFVWAV [CYBA_Y87_R90W_YF] | 4.23 | 3.63 | 3.07 | 13.5 | 10.9 | 1.97 | 4.28 | 1.56 | 1.92 | 7.13 | 9.74 | 4.62 | 1.27 | 0.939 | 0.771 | 0.534
4 | PGIRMYRVQFN [LRFN1_Y454_Q455R_YF] | 1.35 | 0.468 | 0.642 | 0.622 | 0.618 | 0.611 | 1.14 | 0.656 | 0.485 | 0.844 | 0.652 | 0.512 | 0.607 | 0.796 | 0.606 | 0.469
5 | PGVDIYVSPNM [PADI3_Y51_I52V] | 1.37 | 1.17 | 1.46 | 0.809 | 0.781 | 0.708 | 1.71 | 1.52 | 2.76 | 1.24 | 0.629 | 2.3 | 0.885 | 0.804 | 0.555 | 0.524
6 | PICEGYALPHA [ACTC1_Y171_Y168C] | 0.946 | 0.488 | 0.587 | 0.682 | 0.598 | 0.577 | 0.804 | 0.707 | 0.535 | 0.453 | 0.445 | 0.897 | 0.406 | 0.951 | 0.918 | 4.74
7 | PIGRKYKKVRF [F8_Y442_R437P] | 0.828 | 0.557 | 0.597 | 0.577 | 0.368 | 0.459 | 0.54 | 0.763 | 0.553 | 0.545 | 0.498 | 0.661 | 0.587 | 0.653 | 0.648 | 0.568
8 | PIPAAYNRYDQ [CDC73_Y290] | 0.71 | 0.433 | 0.571 | 0.541 | 0.621 | 0.593 | 0.751 | 0.736 | 0.507 | 0.416 | 0.263 | 0.572 | 0.342 | 0.75 | 0.559 | 0.5
9 | PLDGEYLTLQI [TP53_Y327_F328L] | 2.75 | 1.46 | 1.23 | 1.64 | 2.15 | 1.08 | 2.31 | 1.08 | 0.927 | 2.48 | 0.764 | 2.16 | 1.14 | 0.522 | 0.555 | 0.504
10 | PLRAFYLIARV [HLCS_Y635_D634Y_YF] | 3.67 | 1.02 | 1.46 | 1.07 | 1.84 | 1.26 | 4.68 | 0.92 | 0.866 | 5.18 | 1.33 | 3.67 | 2.27 | 0.996 | 0.738 | 0.6
11 | PMQMPYDSRWE [PDGFRA_Y582_L580M] | 1.52 | 0.835 | 0.801 | 0.865 | 1.1 | 0.671 | 1.47 | 0.374 | 0.794 | 2.03 | 0.728 | 1.96 | 1.49 | 0.615 | 0.721 | 0.601
12 | PPQFSYGLQTQ [SRA1_Y35] | 0.466 | 0.333 | 0.584 | 0.586 | 0.308 | 0.286 | 0.604 | 0.346 | 0.443 | 0.433 | 0.467 | 0.483 | 0.426 | 0.97 | 0.544 | 0.425
13 | PPVVNYEQDAR [FER_Y402_E404Q] | 1.33 | 1.01 | 0.534 | 0.69 | 1.29 | 0.679 | 1.18 | 0.636 | 0.628 | 1.49 | 0.541 | 0.767 | 0.646 | 0.879 | 0.826 | 0.728
14 | PQAVRYIYTID [DCX_Y103_G100A] | 1.12 | 0.74 | 0.722 | 0.723 | 0.74 | 0.67 | 1.42 | 7.37 | 3.66 | 0.983 | 1.72 | 1.01 | 6.46 | 0.882 | 17.1 | 0.644
15 | PQDVTYAQLHS [LILRB4_Y412] | 0.959 | 1.22 | 0.999 | 0.351 | 0.75 | 0.685 | 1.22 | 4.37 | 6.52 | 0.786 | 0.645 | 0.815 | 2.8 | 0.56 | 1.52 | 0.973
16 | PSDLLYIPDIQ [ITGA2B_Y845_L847P] | 2 | 1.35 | 1.1 | 1.21 | 1.37 | 0.494 | 1.77 | 0.917 | 0.921 | 2 | 0.953 | 1.89 | 0.808 | 0.847 | 0.288 | 0.539
17 | PSELFYSKISP [SMG1_Y2254_G2258S_YF] | 1.15 | 1.59 | 1.52 | 3.79 | 2.72 | 11.3 | 0.972 | 2.06 | 8.64 | 2.3 | 13.6 | 3.5 | 3.48 | 0.854 | 3.93 | 3.17

Row | Sequence | phosphorylation enrichment (AncSZ) | phosphorylation enrichment (EPHB1) | phosphorylation enrichment (EPHB2) | phosphorylation enrichment (FGFR1) | phosphorylation enrichment (FGFR3) | phosphorylation enrichment (Fer (mouse)) | phosphorylation enrichment (Fes) | phosphorylation enrichment (Fyn) | phosphorylation enrichment (Hck) | phosphorylation enrichment (Jak2) | phosphorylation enrichment (MERTK) | phosphorylation enrichment (c-Abl (mouse)) | phosphorylation enrichment (c-Src) | SH2 binding enrichment (Grb2 SH2) | SH2 binding enrichment (SHP2-C SH2) | SH2 binding enrichment (c-Src SH2)
18 | PSGPTYRGAVP [ASAH1_Y43] | 0.772 | 0.757 | 0.509 | 0.58 | 0.503 | 0.417 | 0.698 | 0.602 | 0.583 | 0.611 | 0.58 | 0.489 | 0.878 | 0.876 | 0.74 | 0.519
19 | PSPMPYASCQM [FOXL2_Y215] | 1.28 | 0.631 | 0.65 | 0.671 | 0.625 | 1 | 1.07 | 0.519 | 0.661 | 0.98 | 0.608 | 0.666 | 0.865 | 0.688 | 0.848 | 1.24
20 | PSRKDYETFQS [CTNND2_Y1154_P1159S_YF] | 0.853 | 0.91 | 0.792 | 0.769 | 0.751 | 0.518 | 0.977 | 0.845 | 0.54 | 0.553 | 0.614 | 1.94 | 0.729 | 0.76 | 0.55 | 0.439
21 | PVFQVYPLLNC [GATA1_Y78] | 1.7 | 0.775 | 0.64 | 1.27 | 1.43 | 0.758 | 1.87 | 0.652 | 0.654 | 1.72 | 0.927 | 1.13 | 0.697 | 0.742 | 0.783 | 0.49
22 | PVPKTYDMLKA [PKP2_Y108] | 1.07 | 1.2 | 0.541 | 0.766 | 0.707 | 0.577 | 1.02 | 0.764 | 1.46 | 1.92 | 0.648 | 1.01 | 0.861 | 0.806 | 0.695 | 1.39
23 | PVQAVYQKVVA [HBB_Y131_A130V] | 0.373 | 0.727 | 0.578 | 0.421 | 0.617 | 1.14 | 0.532 | 0.677 | 1.75 | 0.289 | 1.47 | 0.203 | 1.61 | 0.913 | 1.01 | 1.3
24 | PVQDAYQKVVA [HBB_Y131_A129D] | 0.526 | 0.445 | 0.308 | 0.397 | 0.429 | 0.493 | 0.453 | 0.366 | 0.353 | 0.425 | 0.379 | 0.421 | 0.386 | 0.983 | 0.956 | 1.03
25 | PYVYYYSYLLK [PTEN_Y178_R173P] | 1.99 | 3.56 | 1.92 | 6.02 | 6.37 | 1.1 | 1.87 | 1.88 | 3.46 | 4.21 | 5.9 | 3.68 | 3.14 | 0.873 | 0.598 | 0.669
26 | QDKDLYPCPGT [RLF_Y671_R668K] | 1.36 | 0.701 | 0.857 | 0.744 | 0.785 | 0.562 | 1.18 | 0.652 | 0.625 | 0.996 | 0.613 | 0.726 | 0.483 | 0.832 | 0.801 | 0.658
27 | QEMMEYRRQIQ [DES_Y324_H326R] | 0.878 | 0.523 | 0.601 | 0.424 | 0.607 | 0.644 | 0.92 | 0.491 | 0.355 | 1.18 | 0.455 | 0.428 | 0.563 | 0.737 | 0.734 | 0.401
28 | QGCSIYKDFFR [PLA2G2D_Y82_YF] | 1.44 | 1.11 | 1.18 | 0.721 | 1.28 | 0.774 | 1.74 | 3.19 | 1.86 | 2.25 | 0.998 | 2.14 | 6.61 | 0.921 | 0.724 | 0.487
29 | QGIIIYKAAYF [SLC25A4_Y187_R188K] | 1.66 | 0.94 | 1.04 | 0.948 | 1.2 | 1.01 | 2.36 | 0.53 | 0.647 | 2.63 | 1.04 | 1.85 | 1.06 | 0.708 | 0.942 | 0.391
30 | QGIYGYHHHMQ [UFSP2_Y287_Y290H] | 0.932 | 2.34 | 4.59 | 0.613 | 0.653 | 10.9 | 0.923 | 9.98 | 9.07 | 0.598 | 9.93 | 4.62 | 7.86 | 1.09 | 1.07 | 1.07
31 | QISQDYGVLLE [PRDX3_Y172_R170Q] | 1.37 | 0.876 | 1.21 | 0.851 | 0.792 | 0.673 | 1.69 | 0.828 | 0.743 | 1.32 | 0.603 | 1.18 | 0.981 | 0.52 | 0.482 | 0.516
32 | QISRDYGVLLE [PRDX3_Y172] | 0.922 | 0.617 | 0.731 | 0.523 | 0.69 | 0.637 | 1.04 | 0.624 | 0.751 | 0.862 | 0.64 | 0.635 | 0.679 | 0.845 | 0.683 | 0.576
33 | QITQVYGFYHE [PPP2CA_Y127_D131H] | 0.938 | 0.66 | 0.877 | 0.614 | 0.753 | 0.872 | 1.07 | 10.1 | 7.96 | 1.21 | 3.47 | 0.67 | 8.14 | 1.04 | 1.04 | 1.05
